Experimental data as given in the supplement of paper PMC7125110.
± gives the standard error. For some of these results: This sample holds only a part of the variants without activity.

B1: glmS ribozyme (parent)
chain: AUAAAAGCGCCAGAACUACAGAAAUGUAGUUGACGAGGAGGAGGUUUAUCGAAUUUUCGGCGGAUGCCUCCAAA

Key:
Conditions in all cases: with glucosamine-6-phosphate
[1] = variants of: B1; test: kcat; higher = faster cleavage; RNA array
Summary of the method: (§1)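 A hybridised Cy3 probe tracked barcoded ribozyme variants, transcribed in situ by E. coli RNA polymerase on sequenced MiSeq chips, at 37 °C. The variants received 40 μM to 10 mM glucosamine-6-phosphate in HEPES/KCl/Mg(OAc)2 buffer. kobs came from decay fits and kcat and KM from weighted Michaelis–Menten fits.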

[2] = variants of: B1; test: self-cleavage kobs at 640 uM GlcN6P; higher = faster cleavage; RNA array
Summary of the method: as §1

[3] = variants of: B1; test: self-cleavage kobs at 2500 uM GlcN6P; higher = faster cleavage; RNA array
Summary of the method: as §1

[4] = variants of: B1; test: self-cleavage kobs at 10000 uM GlcN6P; higher = faster cleavage; RNA array
Summary of the method: as §1

[5] = variants of: B1; test: KM; higher = weaker cofactor use; RNA array
Summary of the method: as §1

[6] = variants of: B1; test: self-cleavage kobs at 40 uM GlcN6P; higher = faster cleavage; RNA array
Summary of the method: as §1

[7] = variants of: B1; test: self-cleavage kobs at 160 uM GlcN6P; higher = faster cleavage; RNA array
Summary of the method: as §1

Variant | kcat [1] | self-cleavage kobs at 640 uM GlcN6P [2] | self-cleavage kobs at 2500 uM GlcN6P [3] | self-cleavage kobs at 10000 uM GlcN6P [4] | KM [5] | self-cleavage kobs at 40 uM GlcN6P [6] | self-cleavage kobs at 160 uM GlcN6P [7]
G29U C70A | 6.65e-05 ± 8.1e-06 s⁻¹ | 4.74e-05 ± 7.5e-06 s⁻¹ | 6.79e-05 ± 7.2e-06 s⁻¹ | 5.54e-05 ± 7.6e-06 s⁻¹ |  |  | 
A15C C16A C70U C71U | 2.86e-05 ± 3.8e-06 s⁻¹ |  | 2.89e-05 ± 1.3e-05 s⁻¹ |  |  |  | 
G59C C67G | < 1e-05 s⁻¹ |  |  |  |  |  | 
G44C C67G | 0.0216 ± 0.0034 s⁻¹ | 0.00316 ± 0.00083 s⁻¹ | 0.00752 ± 0.0019 s⁻¹ | 0.0168 ± 0.0047 s⁻¹ | 3930 ± 790 µM | 0.000211 ± 4.8e-05 s⁻¹ | 0.000995 ± 0.00033 s⁻¹
U49G C67G | 8.59e-05 ± 1e-05 s⁻¹ | 3.79e-05 ± 1e-05 s⁻¹ | 4.61e-05 ± 8.8e-06 s⁻¹ | 7.87e-05 ± 6.7e-06 s⁻¹ |  |  | 
U55A G66U | 0.00223 ± 0.00093 s⁻¹ | 0.000355 ± 7.1e-05 s⁻¹ | 0.00136 ± 0.00021 s⁻¹ | 0.00195 ± 0.00029 s⁻¹ |  | 7.9e-05 ± 1.3e-05 s⁻¹ | 0.000202 ± 5.4e-05 s⁻¹
A15U A42U | 4.62e-05 ± 4.1e-06 s⁻¹ |  |  | 3.96e-05 ± 1e-05 s⁻¹ | 1830 ± 680 µM |  | 
G13A C71G | 5.85e-05 ± 4.1e-06 s⁻¹ | 5.42e-05 ± 1.3e-05 s⁻¹ | 5.71e-05 ± 9.7e-06 s⁻¹ | 5.48e-05 ± 7e-06 s⁻¹ |  |  | 
U31C A53C | 0.00137 ± 0.00011 s⁻¹ | 0.00028 ± 8e-05 s⁻¹ | 0.0007 ± 0.00011 s⁻¹ | 0.00116 ± 0.0002 s⁻¹ | 2260 ± 350 µM |  | 0.00011 ± 3.6e-05 s⁻¹
U30G U65G | 0.00191 ± 0.00048 s⁻¹ | 0.000378 ± 6e-05 s⁻¹ | 0.000614 ± 0.0001 s⁻¹ | 0.00155 ± 0.00019 s⁻¹ | 3590 ± 1400 µM |  | 8.07e-05 ± 1.4e-05 s⁻¹
A15U U47C | 0.00038 ± 5e-05 s⁻¹ | 0.00024 ± 7.3e-05 s⁻¹ | 0.00036 ± 5e-05 s⁻¹ | 0.000325 ± 3.4e-05 s⁻¹ | 862 ± 310 µM |  | 5.24e-05 ± 1.3e-05 s⁻¹
A36U A64G C70U | 6.13e-05 ± 1.3e-05 s⁻¹ |  | 7.29e-05 ± 2.6e-05 s⁻¹ | 5.17e-05 ± 1.8e-05 s⁻¹ |  |  | 
G29U G38A G59A C67A U69G | 2.86e-05 ± 6.2e-06 s⁻¹ |  |  |  |  |  | 
C11A U56G | 0.00015 ± 3.9e-05 s⁻¹ | 6.35e-05 ± 1.2e-05 s⁻¹ | 7.76e-05 ± 1.1e-05 s⁻¹ | 0.000155 ± 1.9e-05 s⁻¹ |  |  | 
U57A C71G | 5.3e-05 ± 1.6e-05 s⁻¹ |  |  |  |  |  | 
C16A U65G | 0.000487 ± 7.9e-05 s⁻¹ | 8.78e-05 ± 1.8e-05 s⁻¹ | 0.000156 ± 5.5e-05 s⁻¹ | 0.000382 ± 5.9e-05 s⁻¹ | 3310 ± 1000 µM |  | 
U45A C68U | 0.0022 ± 0.00039 s⁻¹ | 0.000729 ± 0.00013 s⁻¹ | 0.00176 ± 0.00032 s⁻¹ | 0.00194 ± 0.00027 s⁻¹ | 1080 ± 320 µM | 7.41e-05 ± 1.2e-05 s⁻¹ | 0.000537 ± 0.00012 s⁻¹
U56C C70U | 0.000177 ± 5e-06 s⁻¹ | 4.77e-05 ± 6.2e-06 s⁻¹ | 0.000111 ± 9.3e-06 s⁻¹ | 0.00015 ± 1e-05 s⁻¹ | 1660 ± 120 µM |  | 

Variant | kcat [1] | self-cleavage kobs at 640 uM GlcN6P [2] | self-cleavage kobs at 2500 uM GlcN6P [3] | self-cleavage kobs at 10000 uM GlcN6P [4] | KM [5] | self-cleavage kobs at 40 uM GlcN6P [6] | self-cleavage kobs at 160 uM GlcN6P [7]
A33U A53U | 4.9e-05 ± 3.4e-06 s⁻¹ |  | 2.34e-05 ± 1e-05 s⁻¹ | 3.95e-05 ± 9.4e-06 s⁻¹ | 2490 ± 550 µM | < 1e-05 s⁻¹ | < 1e-05 s⁻¹
A33G G63C | < 1e-05 s⁻¹ | < 1e-05 s⁻¹ |  |  |  | < 1e-05 s⁻¹ | 
A14G A48C | 0.00102 ± 4.5e-05 s⁻¹ | 0.000205 ± 8.1e-05 s⁻¹ | 0.000509 ± 6.7e-05 s⁻¹ | 0.000803 ± 7.7e-05 s⁻¹ | 2630 ± 260 µM |  | 5.84e-05 ± 1.5e-05 s⁻¹
C11A G51U U65C C68U | 3.35e-05 ± 9e-06 s⁻¹ |  |  |  |  |  | 
A6C C16G U31C C34G C68A | 1.74e-05 ± 6.6e-06 s⁻¹ |  |  |  |  |  | 
U46G U55C | 0.0109 ± 0.0051 s⁻¹ | 0.00171 ± 0.00029 s⁻¹ | 0.00371 ± 0.00062 s⁻¹ | 0.0103 ± 0.0013 s⁻¹ |  | 0.000264 ± 3.5e-05 s⁻¹ | 0.000497 ± 5.4e-05 s⁻¹
U46G U55G | 0.00623 ± 0.0016 s⁻¹ | 0.00125 ± 0.00021 s⁻¹ | 0.00414 ± 0.001 s⁻¹ | 0.00533 ± 0.00091 s⁻¹ | 2040 ± 690 µM | 0.000153 ± 2.1e-05 s⁻¹ | 0.000395 ± 8.6e-05 s⁻¹
C8A G37C G38A C70U | 1.14e-05 ± 3.5e-06 s⁻¹ |  |  |  |  |  | 
G32A U55A C68A | 3.25e-05 ± 3.5e-06 s⁻¹ |  |  |  |  |  | 
U47C C58G | 6.37e-05 ± 7.3e-07 s⁻¹ |  | 3.41e-05 ± 1.1e-05 s⁻¹ | 5.23e-05 ± 7.5e-06 s⁻¹ | 2170 ± 92 µM |  | 
C58U C68U | 6.04e-05 ± 7.7e-06 s⁻¹ |  | 2.71e-05 ± 8.5e-06 s⁻¹ | 4.92e-05 ± 7.3e-06 s⁻¹ | 2460 ± 1000 µM |  | 
G32A G41A | 0.00039 ± 9.1e-05 s⁻¹ | 6.12e-05 ± 1.1e-05 s⁻¹ | 0.000116 ± 1.6e-05 s⁻¹ | 0.000279 ± 3e-05 s⁻¹ | 4740 ± 2000 µM |  | 
A39G A53G C67G | 0.00302 ± 0.001 s⁻¹ | 0.00135 ± 0.00029 s⁻¹ | 0.00536 ± 0.0012 s⁻¹ | 0.00257 ± 0.00072 s⁻¹ |  | 0.000234 ± 7.2e-05 s⁻¹ | 0.000647 ± 0.00024 s⁻¹
A42G U56C | 0.00693 ± 0.0014 s⁻¹ | 0.00106 ± 0.00018 s⁻¹ | 0.00317 ± 0.0005 s⁻¹ | 0.00522 ± 0.0008 s⁻¹ | 3180 ± 860 µM | 7.76e-05 ± 1.5e-05 s⁻¹ | 0.000469 ± 8.9e-05 s⁻¹
A42G U56A | 0.0334 ± 0.011 s⁻¹ | 0.00451 ± 0.001 s⁻¹ | 0.0106 ± 0.0033 s⁻¹ | 0.024 ± 0.0052 s⁻¹ | 4460 ± 1800 µM | 0.000401 ± 8.1e-05 s⁻¹ | 0.000893 ± 0.00024 s⁻¹
C16U G38U C71U | 1.14e-05 ± 2e-06 s⁻¹ |  |  |  |  |  | 
A14U | 0.0182 ± 0.0048 s⁻¹ | 0.00328 ± 0.00015 s⁻¹ | 0.00942 ± 0.00041 s⁻¹ | 0.0143 ± 0.00047 s⁻¹ | 2730 ± 850 µM | 0.000298 ± 5.5e-06 s⁻¹ | 0.00073 ± 3e-05 s⁻¹
